# From patent US20170298146A1 (MODIQUEST B V, published 2017)
# Non-standard residues stand in square brackets, D forms with d. No end group written: not given here. Cit = NC(=O)NCCC[C@H](N)C(=O)O
# T1: huFibα XH (human, X at position 15 is citrulline; biotin label)
# T1 peptide: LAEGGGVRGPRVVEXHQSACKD
# T2: huFibα XG (human, X at position 8 is citrulline; biotin label)
# T2 peptide: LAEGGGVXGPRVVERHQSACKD
# T3: msFibβ XG (mouse, also: biotin label)
# T3 peptide: EPTDSLDA[Cit]GHRPVDRR
# T4: msFibα XH (mouse, X at position 15 is citrulline; biotin label)
# T4 peptide: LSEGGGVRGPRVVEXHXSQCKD
# T5: msVim XS/XL (mouse, also: biotin label)
# T5 construct: also called mouse vimentin peptide
# T5 peptide: YVT[Cit]SSAV[Cit]L[Cit]SSVP
# T6: msFibα XG (mouse, X at position 8 is citrulline; biotin label)
# T6 peptide: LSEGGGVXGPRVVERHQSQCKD
# T7: Histone 2A citrulline-containing peptide 7 (human, also: biotin label)
# T7 peptide: GNYSE[Cit]VGAGAP
# T8: Histone 2A citrulline-containing peptide 2 (human, also: biotin label)
# T8 peptide: AKAKS[Cit]SSRAGL
# T9: Histone 2A citrulline-containing peptide 12 (human, also: biotin label)
# T9 peptide: NKLLG[Cit]VTIAQG
# B1: RhmAb2.102 (antibody, human IgG1, lambda)
# heavy: not shown
# light: QSVLTQPPSMSAAPGQKVTISCSGSSSNIGNNYVSWYQQVPGTAPKLLIYDDNKRPSGIPGRFSGSKSATSATLGITGLQAGDEADYYCGSWDDNLSVVLFGGGTKLTVLGQPKAAPSVTLFPPSSEELQANKATLVCLISDFYPGAVTVAWKADSSPVKAGVETTTPSKQSNNKYAASSYLSLTPEQWKSHRSYSCQVTHEGSTVEKTVAPTECS
# notes: Human IgG1 lambda; also called Rhm2.102
# Legend:
# [1] = target: T1, huFibα XH; experiment: peptide ELISA, 0.00064 ug/well
# Method: (§1) Biotin and citrulline-containing peptides derived from fibrinogen and vimentin were immobilized on NEUTRAVIDIN®-coated 96-well ELISA plates (0.3 μg/well). CFC-1 and CFC-0 were coated at the same concentration and served as positive and negative controls respectively for specific anti-citrulline reactivity and as coating controls. Non-coated wells were used to test for aspecific binding of the antibodies. […] Detection of bound anti-citrulline antibodies was performed by incubating the wells with rabbit-anti-human-HRP (1:2000) for one hour at RT followed by incubation with TMB substrate. The resulting OD (y-axis) is a measure for antibody binding.
# (§2) Biotin-labeled and citrulline-containing fibrinogen and vimentin peptides (Table 5) were also tested for reactivity with the therapeutic antibodies. Peptides were coated on 96-well NEUTRAVIDIN®-ELISA plates.
# [2] = target: T2, huFibα XG; experiment: peptide ELISA, 0.00064 ug/well
# Method: as §1, §2
# [3] = target: T10, CFC-1; experiment: peptide ELISA, 0.00064 ug/well
# T10 construct: Positive control for anti-citrulline reactivity; also called cfc1 XG
# Method: as §1, §2
# [4] = target: T3, msFibβ XG; experiment: peptide ELISA, 0.00064 ug/well
# Method: as §1, §2
# [5] = target: T4, msFibα XH; experiment: peptide ELISA, 0.00064 ug/well
# Method: as §1, §2
# [6] = target: T5, msVim XS/XL; experiment: peptide ELISA, 0.00064 ug/well
# Method: as §1, §2
# [7] = target: T6, msFibα XG; experiment: peptide ELISA, 0.00064 ug/well
# Method: as §1, §2
# [8] = target: T11, huPAD4 deiminated human recombinant histone H2B (human); experiment: ELISA, 0.000128 ug/well
# T11 construct: also called H2B/p4
# Method: (§3) CFC-1 and CFC-0 were coated at the same concentration and served as positive and negative controls, respectively, for specific anti-citrulline reactivity and as coating controls. Non-coated wells were used to test for aspecific binding of the antibodies. […] Detection of bound anti-citrulline antibodies was performed by incubating the wells with rabbit-anti-human-HRP (1:2000) for one hour at RT followed by incubation with TMB substrate. The resulting OD (y-axis) is a measure for antibody binding. H1=recombinant histone 1; H1/p2=huPAD2 recombinant histone 1; H1/p4=huPAD4 recombinant histone 1 and so forth (x-axis).
# [9] = target: T12, huPAD2 deiminated human recombinant histone H3 (human); experiment: ELISA, 0.000128 ug/well
# T12 construct: also called H3/p2
# Method: as §3
# [10] = target: T13, huPAD4 deiminated human recombinant histone H3 (human); experiment: ELISA, 0.000128 ug/well
# T13 construct: also called H3/p4
# Method: as §3
# [11] = target: T14, huPAD2 deiminated human recombinant histone H2A (human); experiment: ELISA, 0.000128 ug/well
# T14 construct: also called H2A/p2
# Method: as §3
# [12] = target: T15, human recombinant histone H2B (human); experiment: ELISA, 0.000128 ug/well
# T15 construct: Non-deiminated
# Method: as §3
# [13] = target: T10, CFC-1; experiment: peptide ELISA, 0.4 ug/well
# Method: as §1, with “histone 2A” for “fibrinogen and vimentin”
# (§4) Ninety-six-well ELISA plates were coated with NEUTRAVIDIN® (0.1 μg/well) by overnight incubation at 4° C. Wells were washed five times with PBS-TWEEN®-20 (PBS-T) and blocked by a one-hour incubation with PBS-T+1% Bovine serum albumin (BSA) at room temperature (RT). After five more washes with PBS-T, wells were incubated for one hour at RT with histone-derived citrulline and biotin-containing peptides (0.3 μg/well). […] Wells were washed five times with PBS-T and incubated with rabbit-anti-human-HRP (1:2000) for one hour at RT followed by five washes with PBS-T and three wash steps with PBS. Wells were incubated for five minutes with TMB substrate before stopping the reaction with 2 M H₂SO₄. Optical density was measured by 450 nm and is a measure for the affinity of the antibodies used.
# [14] = target: T7, Histone 2A citrulline-containing …; experiment: peptide ELISA, 0.4 ug/well
# Method: as §1, with “histone 2A” for “fibrinogen and vimentin”
# as §4
# [15] = target: T8, Histone 2A citrulline-containing …; experiment: peptide ELISA, 0.4 ug/well
# Method: as §1, with “histone 2A” for “fibrinogen and vimentin”
# as §4
# [16] = target: T9, Histone 2A citrulline-containing …; experiment: peptide ELISA, 0.4 ug/well
# Method: as §1, with “histone 2A” for “fibrinogen and vimentin”
# as §4
# [17] = target: T11, huPAD4 deiminated human recombinant …; experiment: ELISA, 0.00064 ug/well
# Method: as §3
# [18] = target: T10, CFC-1; experiment: ELISA, 0.00064 ug/well
# Method: as §3
# [19] = target: T16, huPAD4 deiminated human recombinant histone H2A (human); experiment: ELISA, 0.00064 ug/well
# T16 construct: also called H2A/p4; huPAD4 deiminated histone 2A
# Method: as §3
# [20] = target: T17, human recombinant histone H2A (human); experiment: ELISA, 0.00064 ug/well
# T17 construct: Non-deiminated
# Method: as §3
# [21] = target: T14, huPAD2 deiminated human recombinant …; experiment: ELISA, 0.00064 ug/well
# Method: as §3
# [22] = target: T15, human recombinant histone H2B; experiment: ELISA, 0.00064 ug/well
# Method: as §3
# [23] = target: human recombinant histone H4 (human, UniProt P62805 2-103); experiment: ELISA, 0.00064 ug/well
# Method: as §3
# [24] = target: T18, huPAD2 deiminated human recombinant histone H2B (human); experiment: ELISA, 0.00064 ug/well
# T18 construct: also called H2B/p2
# Method: as §3
binder,measurement,setting,value
B1,OD,[1],0.124 OD
same,OD,[2],0.125 OD
same,OD,[3],0.345 OD
same,OD,[4],0.133 OD
same,OD,[5],0.088 OD
same,OD,[6],0.154 OD
same,OD,[7],0.116 OD
same,OD,[8],0.053 OD
same,OD,[9],0.066 OD
same,OD,[10],0.06 OD
same,OD,[11],0.063 OD
same,OD,[12],0.052 OD
same,OD,[13],3.06 OD
same,OD,[14],0.064 OD
same,OD,[15],0.136 OD
same,OD,[16],0.061 OD
same,OD,[17],0.055 OD
same,OD,[18],0.077 OD
same,OD,[19],0.075 OD
same,OD,[20],0.057 OD
same,OD,[21],0.077 OD
same,OD,[22],0.052 OD
same,OD,[23],0.06 OD
same,OD,[24],0.052 OD
